Five substances from article PMC1356529 can be followed below.

For data set [1], the target named is NCp9 (HIV-1) (UniProt P12493). Briefly: Trp fluorescence quenching titration.
In data set [2] the target is NCp7 (HIV-1) (UniProt P12493). Briefly: Trp fluorescence quenching titration.
Data set [3] concerns the target NCp9 (HIV-1) (UniProt P12493). Briefly: single-molecule DNA stretching.
Data set [4] has as its system NCp15 (HIV-1). The data set can be described thus: single-molecule DNA stretching.
The target of data set [5] is NCp7 (HIV-1) (UniProt P12493). Briefly: single-molecule DNA stretching.
The subject of data set [6] is NCp15 (HIV-1). The data set can be described thus: Trp fluorescence quenching titration.
Data set [7] addresses NCp9 (HIV-1) (UniProt P12493). The data set can be described thus: ethenoA fluorescence enhancement titration. The conditions noted are these: 1,N6-ethenoadenosine homopolymer (RNA).
The test system of data set [8] is NCp15 (HIV-1). Briefly: ethenoA fluorescence enhancement titration. The conditions noted are these: 1,N6-ethenoadenosine homopolymer (RNA).
The target in data set [9] is NCp7 (HIV-1) (UniProt P12493). The data set can be described thus: ethenoA fluorescence enhancement titration. To be noted: 1,N6-ethenoadenosine homopolymer (RNA).

Take 3'LTR/U5 single strand: the Ka in data set [1] amounted to 6.2e+07 M⁻¹; in [2], 4.3e+07 M⁻¹.

In the case of 5'LTR/U3 single strand, the Ka in data set [1] was determined as 3.9e+08 M⁻¹; in data set [2], 2.2e+08 M⁻¹.

Regarding lambda-DNA, the Ka in data set [3] was found to be 1.4e+08 M⁻¹; in data set [4] it was 1.04e+08 M⁻¹; in [5], 1.22e+08 M⁻¹.

As to poly(dT), the Ka in [1] came out at 1.1e+08 M⁻¹; in data set [6], 1.4e+09 M⁻¹; in data set [2] it was 9.3e+07 M⁻¹.

With poly(etheno-A), the Ka in [7] was 3.8e+09 M⁻¹; in data set [8], 1.7e+09 M⁻¹; in data set [9], 1.4e+09 M⁻¹.
